Assay [1] concerns PPIs of the SKEMPI data set (by PDBID). Kind of assay: SKEMPI experimental ΔΔG, single mutations to alanine. It counts as binding. Conditions: for sk_class: class of the SKEMPI experimental ΔΔG; for sk_class (class of SKEMPI experimental ΔΔG): class by ΔΔG threshold 4.184 kJ/mol, ref SKEMPI.
The test system is the same in assay [2]. Particulars: single mutation to alanine, sheet sortedByGroup, r_group FAMILYVW, ref SKEMPI, cited from earlier work.

Changes are numbered by the printed parent chain. Like-named read-outs stand apart in the source and are kept apart here.

B1: 1DFJ WI257A (protein, UniProt P10775 1-456, looked up, variant W257A)
Ribonuclease inhibitor: MNLDIHCEQLSDARWTELLPLLQQYEVVRLDDCGLTEEHCKDIGSALRANPSLTELCLRTNELGDAGVHLVLQGLQSPTCKIQKLSLQNCSLTEAGCGVLPSTLRSLPTLRELHLSDNPLGDAGLRLLCEGLLDPQCHLEKLQLEYCRLTAASCEPLASVLRATRALKELTVSNNDIGEAGARVLGQGLADSACQLETLRLENCGLTPANCKDLCGIVASQASLRELDLGSNGLGDAGIAELCPGLLSPASRLKTLALWECDITASGCRDLCRVLQAKETLKELSLAGNKLGDEGARLLCESLLQPGCQLESLWVKSCSLTAACCQHVSLMLTQNKHLLELQLSSNKLGDSGIQELCQALSQPGTTLRVLCLGDCEVTNSGCSSLASLLLANRSLRELDLSNNCVGDPGVLQLLGSLEQPGCALEQLVLYDTYWTEEVEDRLQALEGSKPGLRVIS
Consider B1, for which the sk_class entry in assay [1] is given as “Positive (positive (a hot residue) ΔΔG ≥ 4.184 kJ/mol)”. For the same molecule, the “sk_ddG_kJ (SKEMPI experimental ΔΔG)” value in assay [2] was 5.56 kJ.

B2: 1DFJ YI433A (protein, UniProt P10775 1-456, looked up, variant Y433A)
Ribonuclease inhibitor: B1 Ribonuclease inhibitor with A257W, Y433A
As to B2, the sk_class result in assay [1] is “Positive (positive (a hot residue) ΔΔG ≥ 4.184 kJ/mol)”. Further, the “sk_ddG_kJ (SKEMPI experimental ΔΔG)” value in assay [2] was 10.96 kJ.

B3: 1DFJ YI430A (protein, UniProt P10775 1-456, looked up, variant Y430A)
Ribonuclease inhibitor: B1 Ribonuclease inhibitor with A257W, Y430A
On to B3, for which the sk_class result in assay [1] is recorded as “Positive (positive (a hot residue) ΔΔG ≥ 4.184 kJ/mol)”. Besides, in assay [2], the “sk_ddG_kJ (SKEMPI experimental ΔΔG)” value is 24.89 kJ.

B4: 1DFJ II455A (protein, UniProt P10775 1-456, looked up, variant I455A)
Ribonuclease inhibitor: B1 Ribonuclease inhibitor with A257W, I455A
In the case of B4, the sk_class result in assay [1] is “Neutral (neutral (little effect) 4.184 kJ/mol < ΔΔG > −4.184 kJ/mol)”. In addition, the “sk_ddG_kJ (SKEMPI experimental ΔΔG)” value in assay [2] is on record as 1.38 kJ.

B5: 1DAN YU157A (protein, UniProt P13726 33-251, looked up, variant Y157A)
extracellular domain: SGTTNTVAAYNLTWKSTNFKTILEWEPKPVNQVYTVQISTKSGDWKSKCFYTTDTECDLTDEIVKDVKQTYLARVFSYPAGNVESTGSAGEPLYENSPEFTPYLETNLGQPTIQSFEQVGTKVNVTVEDERTLVRRNNTFLSLRDVFGKDLIYTLYAWKSSSSGKKTAKTNTNEFLIDVDKGENYCFSVQAVIPSRTVNRKSTDSPVECMGQEKGEFRE
modifications: extracellular domain
In the case of B5, the sk_class entry in assay [1] is recorded as “Neutral (neutral (little effect) 4.184 kJ/mol < ΔΔG > −4.184 kJ/mol)”. For the same molecule, the “sk_ddG_kJ (SKEMPI experimental ΔΔG)” value in assay [2] was 0.00 kJ.

B6: 1DAN VU207A (protein, UniProt P13726 33-251, looked up, variant V207A)
extracellular domain: B5 extracellular domain with A157Y, V207A
modifications: extracellular domain
Regarding B6, in assay [1], the sk_class result was “Positive (positive (a hot residue) ΔΔG ≥ 4.184 kJ/mol)”. The “sk_ddG_kJ (SKEMPI experimental ΔΔG)” value in assay [2] was 6.57 kJ.

B7: 1DAN VU198A (protein, UniProt P13726 33-251, looked up, variant V198A)
extracellular domain: B5 extracellular domain with A157Y, V198A
modifications: extracellular domain
Consider B7, for which the sk_class entry in assay [1] is given as “Neutral (neutral (little effect) 4.184 kJ/mol < ΔΔG > −4.184 kJ/mol)”. For the same molecule, in assay [2], the “sk_ddG_kJ (SKEMPI experimental ΔΔG)” value is on record as 0.46 kJ.

B8: 1DAN VU179A (protein, UniProt P13726 33-251, looked up, variant V179A)
extracellular domain: B5 extracellular domain with A157Y, V179A
modifications: extracellular domain
Regarding B8, the sk_class result in assay [1] is recorded as “Neutral (neutral (little effect) 4.184 kJ/mol < ΔΔG > −4.184 kJ/mol)”. Moreover, the “sk_ddG_kJ (SKEMPI experimental ΔΔG)” value in assay [2] is listed as 0.46 kJ.

B9: 1EMV LA33A (protein, UniProt P13479 1-86, looked up, variant L33A)
Colicin-E9 immunity protein: MELKHSISDYTEAEFLQLVTTICNADTSSEEEAVKLVTHFEEMTEHPSGSDLIYYPKEGDDDSPSGIVNTVKQWRAANGKSGFKQG
For B9, the “sk_class (class of SKEMPI experimental ΔΔG)” value in assay [1] was “Positive (positive (a hot residue) ΔΔG ≥ 4.184 kJ/mol)”. In addition, in assay [2] (PPI given by PDBID), the “sk_ddG_kJ (SKEMPI experimental ΔΔG)” value is reported as 14.31 kJ.

B10: 1EMV VA34A (protein, UniProt P13479 1-86, looked up, variant V34A)
Colicin-E9 immunity protein: B9 Colicin-E9 immunity protein with A33L, V34A
As to B10, the “sk_class (class of SKEMPI experimental ΔΔG)” value in assay [1] is “Positive (positive (a hot residue) ΔΔG ≥ 4.184 kJ/mol)”. The “sk_ddG_kJ (SKEMPI experimental ΔΔG)” value in assay [2] (PPI given by PDBID) is 10.79 kJ.

The values above are taken from article PMC6804253, “Predicting and Experimentally Validating Hot-Spot Residues at Protein–Protein Interfaces” (ACS Chemical Biology, 2019).
